Laboratory results as given in US20190352376A1.

Biological target: peptide of Example 1 (influenza virus)
Assay: SPR, mAb captured on anti-mouse Fc, peptide injected

B1: F211-9D1 (antibody, V domains shown)
VL: DIVMSQSPSSLAVSVGEKVTMSCKSSQSLLNSRNQKNHLAWYQQKPGQSPKLLIYWASTRESGVPDRFSGDGSGTDFTLTISSVKAEDLAVYYCQQYYTYRTFGGGTKLEIK
VH: DVQLQESGPGLVKPSQSLSLTCSVTGYSITSDYYWNWIRQFPGNKLEWMAYIGYDGSKNYNPSLKNRISITRDTSKNQFFLKLNSVTTDDTATYYCTRDRANWDDYFDYWGQGTTLTVSS
In the case of B1, the Kd is reported as 0.393 nM.
